The results in this text go back to patent US20230406926A1 (Kyowa Kirin, published 2023).

Residue numbers refer to the chain shown, from its start.

For one test, the target named is T1, CD3 on T cells (UniProt P07766 23-207, limits assumed).
T1 construct: whole, on cells; also called CD3 on the surface of the membrane
Nature of the test: flow cytometry on T cells by the method of Example 3, fluorescently labeled secondary antibody.

A further test addresses T2, HER2 (human, UniProt P04626 23-1255).
T2 construct: whole, on cells; also called HER2 on the surface of the cell membrane
Nature of the test: flow cytometry competition by the method of Example 3 (SK-BR-3 cells): inhibition of the binding of fluorescently labeled Trastuzumab. A general note: A flow cytometer gives signals particle by particle.

For test [1], the target named is T3, His-tag-fused human CD3D&E protein (Sino Biological, Inc.) (human, UniProt P07766 23-126; P04234 22-105).
T3 construct: also called soluble CD3; human CD3 protein
Nature of the test: SPR (Biacore), His-tagged human CD3D&E captured on anti-tetra His antibody, antibody as analyte, single cycle kinetics.
Experimental: The binding affinity of these antibodies for CD3 was measured by Biacore (GE Healthcare). Specifically, an anti-tetra His mouse antibody (QIAGEN NV.) was immobilized on a CM5 sensor chip at approximately 8000 RU using an amine coupling kit (GE Healthcare). As the coupling buffer, 10 mM sodium acetate (pH 4.5) was used. As the ligand, a His-tag-fused human CD3D&E protein (Sino Biological, Inc.) dissolved in HBS-EP(+) buffer at 5 μg/mL was captured at 5 μL/min for 120 seconds.
Subsequently, bispecific antibody solutions obtained by 2-fold serial dilution for 5 times from 10 μg/mL was added as the analyte at a flow rate of 30 μL/min, and binding reaction between each antibody and the analyte was measured for 2 minutes, and a dissociation reaction was measured for 5 minutes. The measurement was performed by single cycle kinetics method. The obtained sensorgram was analyzed using Bia Evaluation Software (GE Healthcare), and the kinetic constant of each antibody was calculated.

Test [2] deals with cynomolgus monkey CD3 on HSC-F cells (cynomolgus monkey, UniProt Q95LI5 22-198). Nature of the test: flow cytometry, hybridoma supernatant on HSC-F cells, Alexa 647 anti-human IgG.
Sequence of cynomolgus monkey CD3 on HSC-F cells (Q95LI5 22-198): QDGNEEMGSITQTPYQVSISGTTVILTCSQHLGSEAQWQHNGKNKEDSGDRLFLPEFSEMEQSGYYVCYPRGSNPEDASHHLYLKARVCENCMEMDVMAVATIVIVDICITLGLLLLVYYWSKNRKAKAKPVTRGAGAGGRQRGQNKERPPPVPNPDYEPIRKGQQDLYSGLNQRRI
Experimental: The screening of anti-CD3 antibody-producing hybridomas was performed by flow cytometry. Cells cultured in a flask for floating cell culture were collected, washed twice with PBS, and then suspended in a staining buffer (PBS containing 0.02% EDTA, 0.05% NaN₃, and 1% BSA), and prepared so that the viable cell count was 2.0 to 5.0×10⁵ cells/50 μL. […] As negative control cells, unstained KHYG-1 cells (JCRB cell bank JCRB156) were used.
These three types of cells were mixed in equal amounts, and the resultant was dispensed into a 96-well plate at 50 μL/well, and incubated on ice for 30 minutes, and then, an equal amount of the undiluted hybridoma supernatant solution was added thereto and mixed therewith, and placed at 4° C. for 30 minutes. […] After performing centrifugation of the cells and washing with a staining buffer twice, the cells were suspended in a staining buffer, and the fluorescent intensity was measured with a flow cytometer CyAn ADP (Beckman Coulter, Inc.).

T3 sequence (P07766 23-126, chain 1 of 2): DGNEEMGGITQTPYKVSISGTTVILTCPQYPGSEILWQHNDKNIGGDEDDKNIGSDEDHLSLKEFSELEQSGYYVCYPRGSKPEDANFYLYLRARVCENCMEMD
T3 sequence (P04234 22-105, chain 2 of 2): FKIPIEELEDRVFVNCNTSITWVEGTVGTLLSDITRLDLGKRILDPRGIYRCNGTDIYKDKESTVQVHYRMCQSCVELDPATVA
T1 sequence (P07766 23-207 limits assumed): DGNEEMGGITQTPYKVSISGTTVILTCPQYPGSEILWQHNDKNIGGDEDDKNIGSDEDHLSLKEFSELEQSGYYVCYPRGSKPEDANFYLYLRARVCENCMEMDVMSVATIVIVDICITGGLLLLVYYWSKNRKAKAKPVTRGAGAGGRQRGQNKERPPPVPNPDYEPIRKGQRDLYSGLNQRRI
Experimental for CD3 on T cells: Each of the various antibodies was added to T cells at a final concentration of 10 g/mL and allowed to react at 4° C. for 1 hour. After washing, Goat anti-Human IgG F(ab)₂-FITC (Acris Antibodies GmbH) diluted to 30 μg/mL was added thereto and allowed to react at 4° C. for 1 hour.
As a positive control, 30 μg/mL of an anti-CD3 antibody OKT-3 (abcam. plc) was used as the primary antibody, and Goat anti-mouse IgG F(ab)₂-FITC (Dako, Inc.) was used as the secondary antibody. After washing, the MFI of the antibody bound to T cells was measured with a flow cytometer Cytomics FC 500 MPL (Beckman Coulter, Inc.).
Experimental for HER2: Subsequently, binding inhibition analysis by flow cytometry was performed using an HER2-positive human breast cancer cell line SK-BR-3 (ATCC HTB-30).
As a negative control, human serum-derived IgG1/kappa (Millipore, Inc.) at the same concentration was added. After washing, mean fluorescent intensity (MFI) of the binding of SK-BR-3 cells was measured with a flow cytometer Cytomics FC 500 MPL (Beckman Coulter, Inc.).

B1: DNP2_IgG1 (DF) (antibody, V domains shown)
VH: QVQLVQSGAEVKKPGASVKVSCKASGYTFTSYGISWVRQAPGQGLEWMGWISAYNGNTNYAQKLQGRVTMTTDTSTSTAYMELRSLRSDDTAVYYCARWDSSSWSFDYWGQGTLVTVSS
VL: DIQMTQSPSSLSASVGDRVTITCRASQGISSWLAWYQQKPEKAPKSLIYAASSLQSGVPSRFSGSGSGTDFTLTISSLQPEDFATYYCQQYNSYPYTFGQGTKLEIKR
notes: also called IgG1-type anti-2,4-dinitrophenyl (DNP) antibody, clone DNP2
In the case of B1, the binding result in the test with CD3 on T cells is given as “no binding (tested: 10 nM)”; with HER2, “no binding”.

B2: 4D5mut_scSP34_IgG1 (DF) (bispecific antibody)
chain 1: EVQLVESGGGLVQPKGSLKLSCAASGFTFNTYAMNWVRQAPGKGLEWVARIRSKYNNYATYYADSVKDRFTISRDDSQSILYLQMNNLKTEDTAMYYCVRHGNFGNSYVSWFAYWGQGTLVTVSSGGGGSGGGGSGGGGSQAVVTQESALTTSPGETVTLTCRSSTGAVTTSNYANWVQEKPDHLFTGLIGGTNKRAPGVPARFSGSLIGDKAALTITGAQTEDEAIYFCALWYSNLWVFGGGTKLTVLGTKYGPPCPPCPAPEFEGGPSVFLFPPKPKDTLMISRTPEVTCVVVDVSQEDPEVQFNWYVDGVEVHNAKTKPREEQFNSTYRVVSVLTVLHQDWLNGKEYKCKVSNKGLPSSIEKTISKAKGQPREPQVCTLPPSQEEMTKNQVSLSCAVKGFYPSDIAVEWESNGQPENNYKTTPPVLDSDGSFFLVSKLTVDKSRWQEGNVFSCSVMHEALHNRFTQKSLSLSLGK
chain 2: not shown
chain 3: not shown
For B2, the Kd (usually the concentration at which binding is half-saturated) in test [1] was determined as 12.6 nM.

B3: 4D5mut_scSP34(H05′)_IgG1 (DF) (bispecific antibody)
chain 1: B2 chain 1 with Y108D, S235E
chain 2: not shown
chain 3: not shown
As to B3, the Kd in test [1] was 108 nM.

B4: anti-CD3 monoclonal antibody KM14 (antibody, V domains shown)
VH: QVQLVESGGGVVQPGRSLRLSCEASGFTFSSHGMHWVRQAPGKGLEWVASIWYDGSKKYYADSVKGRFTISRDNSKNTLDLQMNSLRAEDTAVYYCAKTLYYYGSERAHGLDVWGQGTTVTVSS
VL: AIQLTQSPSSLSASVGDRVTITCRASQGISSALAWYQQKPGKAPNLLIYDASSLESGVPSRFSGSGSGTDFTLTISSLQPEDFATYYCQQFNSYPRTFGQGTKVEIK
notes: also called hybridoma clone KM14
As to B4, the binding result in test [2] is recorded as “binds”.
